Residue numbers refer to the chain shown, from its start.
B1: H1610L0581: affinity matured Dual-Fab variant, VH SEQ ID NO 94, VL SEQ ID NO 143 (antibody, V domains shown)
VH: QVQLVESGGGLVQPGRSLRLSCAASGFVFSNVWMHWVRQAPGKGLEWVAQIKDKWNAYAAYYAPSVKGRFTISRDDSKNSIYLQMNSLKTEDTAVYYCHYIHYASASTLLPAEGIDAWGQGTTVTVSS
VL: DIVMTQSPLSLPVTPGEPASISCQPSQEVVHMNRNTYLHWYQQKPGQAPRLLIYKVSNRFPGVPDRFSGSGSGTDFTLKISRVEAEDVGVYYCAQGTSHPFTFGQGTKLEIK
B2: H1651L0581: affinity matured Dual-Fab variant, VH SEQ ID NO 98, VL SEQ ID NO 143 (antibody, V domains shown)
VH: B1 VH with M34F, W55Y, A60D, K67E, I101V, I115V
VL: B1 VL
B3: H1673L0581: affinity matured Dual-Fab variant, VH SEQ ID NO 100, VL SEQ ID NO 143 (antibody, V domains shown)
VH: B1 VH with M34F, A60D, G68E
VL: B1 VL
B4: H2591L0581: affinity matured Dual-Fab variant, VH SEQ ID NO 101, VL SEQ ID NO 143 (antibody, V domains shown)
VH: B1 VH with V28K, M34F, K54Y, W55Y, A60G, A63H, I101V, S105A, I115V
VL: B1 VL
B5: H1649L0581: affinity matured Dual-Fab variant, VH SEQ ID NO 97, VL SEQ ID NO 143 (antibody, V domains shown)
VH: B1 VH with M34F, W55Y, A60D, G68E, I101V, I115V
VL: B1 VL
B6: H2594L0581: affinity matured Dual-Fab variant, VH SEQ ID NO 102, VL SEQ ID NO 143 (antibody, V domains shown)
VH: B1 VH with V28K, M34F, K54Y, W55Y, A60G, A63H, I101V, S105A, T108Q, I115V
VL: B1 VL
B7: H1652L0943: affinity matured Dual-Fab variant, VH SEQ ID NO 99, VL SEQ ID NO 146 (antibody, V domains shown)
VH: B1 VH with M34F, K54Y, W55Y, A60D, K67E, I101V, I115V
VL: B1 VL with Q27E, R59L, S98H
B8: H1649L0943: affinity matured Dual-Fab variant, VH SEQ ID NO 97, VL SEQ ID NO 146 (antibody, V domains shown)
VH: B1 VH with M34F, W55Y, A60D, G68E, I101V, I115V
VL: B1 VL with Q27E, R59L, S98H
B9: H1673L0943: affinity matured Dual-Fab variant, VH SEQ ID NO 100, VL SEQ ID NO 146 (antibody, V domains shown)
VH: B1 VH with M34F, A60D, G68E
VL: B1 VL with Q27E, R59L, S98H
B10: H1610L0939: affinity matured Dual-Fab variant, VH SEQ ID NO 94, VL SEQ ID NO 145 (antibody, V domains shown)
VH: B1 VH
VL: B1 VL with R59V, S98H
B11: H1571L0581: affinity matured Dual-Fab variant, VH SEQ ID NO 93, VL SEQ ID NO 143 (antibody, V domains shown)
VH: B1 VH with V28K, M34F, W55Y, A60T, I101V, E113F, I115V
VL: B1 VL
B12: H1643L0581: affinity matured Dual-Fab variant, VH SEQ ID NO 95, VL SEQ ID NO 143 (antibody, V domains shown)
VH: B1 VH with V28K, M34F, K54Y, W55Y, I101V, I115V
VL: B1 VL
B13: H183L072: parental Dual-Fab (CD3/CD137), VH SEQ ID NO 90, VL SEQ ID NO 142 (antibody, V domains shown)
VH: B1 VH with V28T, V32A, W55G, I101V, L109V, E113F, I115V
VL: B1 VL with P25A, V29L, H99V
B14: H1550L0918: affinity matured Dual-Fab variant, VH SEQ ID NO 92, VL SEQ ID NO 144 (antibody, V domains shown)
VH: B1 VH with V28K, W55Y, E113F, I115V
VL: B1 VL with R34N, N35V, T36V
B15: H0868L0581: affinity matured Dual-Fab variant, VH SEQ ID NO 91, VL SEQ ID NO 143 (antibody, V domains shown)
VH: B1 VH with V28K, W55Y, I101V, E113F, I115V
VL: B1 VL
B16: H1647L0581: affinity matured Dual-Fab variant, VH SEQ ID NO 96, VL SEQ ID NO 143 (antibody, V domains shown)
VH: B1 VH with V28K, V32T, M34F, K54Y, W55Y, A57D, I101V, I115V
VL: B1 VL

How the values were obtained:
[1] = target: T1, recombinant human CD3 (human CD3eg linker) (Homo sapiens, UniProt P07766+P09693); assay: Biacore T200 SPR affinity of Dual-Fab antibodies to human CD3; format: binding; settings: 25 degrees C, pH 7.4
T1 construct: made in house; host or cells: FreeStyle293F
Excerpt: The gamma and epsilon subunits of the human CD3 complex (human CD3eg linker) were linked by a 29-mer linker and a Flag-tag was fused to the C-terminal end of the gamma subunit (SEQ ID NO: 169). This construct was expressed transiently using FreeStyle293F cell line (Thermo Fisher). Conditioned media expressing human CD3eg linker was concentrated using a column packed with Q HP resins (GE healthcare) and then applied to FLAG-tag affinity chromatography. Fractions containing human CD3eg linker were collected and subsequently subjected to a Superdex 200 gel filtration column (GE healthcare) equilibrated with 1×D-PBS. Fractions containing human CD3eg linker were then pooled and stored at −80 degrees C.
(§1) Binding affinity of Dual-Fab antibodies (Dual-Ig) to human CD3 were assessed at 25 degrees C. using Biacore T200 instrument (GE Healthcare). Anti-human Fc (GE Healthcare) was immobilized onto all flow cells of a CM4 sensor chip using amine coupling kit (GE Healthcare). Antibodies were captured onto the anti-Fc sensor surfaces, then recombinant human CD3 or CD137 was injected over the flow cell. All antibodies and analytes were prepared in ACES pH 7.4 containing 20 mM ACES, 150 mM NaCl, 0.05% Tween 20, and 0.005% NaN3. Sensor surface was regenerated each cycle with 3M MgCl2. Binding affinity were determined by processing and fitting the data to 1:1 binding model using Biacore T200 Evaluation software, version 2.0 (GE Healthcare). CD137 binding affinity assay was conducted in same condition except assay temperature was set at 37 degrees C.

recombinant human CD137 = target: T2, recombinant human CD137 (Homo sapiens, UniProt Q07011); assay: Biacore T200 SPR affinity of Dual-Fab antibodies to human CD137; format: binding; settings: 37 degrees C, pH 7.4
T2 construct: made in house; host or cells: FreeStyle293F
Excerpt: Human CD137 extracellular domain (ECD) (SEQ ID NO: 179) with hexahistidine (His-tag) and biotin acceptor peptide (BAP) on its C-terminus was expressed transiently using FreeStyle293F cell line (Thermo Fisher). Conditioned media expressing human CD137 ECD was applied to a HisTrap HP column (GE healthcare) and eluted with buffer containing imidazole (Nacalai). Fractions containing human CD137 ECD were collected and subsequently subjected to a Superdex 200 gel filtration column (GE healthcare) equilibrated with 1×D-PBS. Fractions containing human CD137 ECD were then pooled and stored at −80 degrees C.
as §1

T1 sequence (P07766+P09693 fused): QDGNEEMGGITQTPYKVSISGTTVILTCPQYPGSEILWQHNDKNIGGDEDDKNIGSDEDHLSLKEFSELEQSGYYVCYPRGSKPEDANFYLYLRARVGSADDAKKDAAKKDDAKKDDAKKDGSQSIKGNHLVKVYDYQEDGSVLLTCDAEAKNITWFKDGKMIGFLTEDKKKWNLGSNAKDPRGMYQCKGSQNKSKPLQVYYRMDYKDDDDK
T2 sequence (Q07011 with tags, fused parts or gaps): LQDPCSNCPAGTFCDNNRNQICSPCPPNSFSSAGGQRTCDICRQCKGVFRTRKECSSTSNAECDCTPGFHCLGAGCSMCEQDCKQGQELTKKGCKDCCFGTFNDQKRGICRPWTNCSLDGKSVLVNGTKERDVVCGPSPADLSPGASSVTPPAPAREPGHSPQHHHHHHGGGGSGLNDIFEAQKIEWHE

Molecule | CD3 Koff [1] | CD3 Kon [1] | CD137 Koff (recombinant human CD137) | CD137 Kon (recombinant human CD137) | Kd [1] | Kd (recombinant human CD137)
B1 | 0.00142 s⁻¹ | 68000 M⁻¹ s⁻¹ | 0.0011 s⁻¹ | 10700 M⁻¹ s⁻¹ | – | –
B2 | 0.0371 s⁻¹ | 71800 M⁻¹ s⁻¹ | 0.000603 s⁻¹ | 14000 M⁻¹ s⁻¹ | – | –
B3 | 0.00106 s⁻¹ | 79600 M⁻¹ s⁻¹ | 0.00096 s⁻¹ | 11900 M⁻¹ s⁻¹ | – | –
B4 | 0.0535 s⁻¹ | 102000 M⁻¹ s⁻¹ | 0.000742 s⁻¹ | 20400 M⁻¹ s⁻¹ | – | –
B5 | 0.0336 s⁻¹ | 75000 M⁻¹ s⁻¹ | 0.000553 s⁻¹ | 12900 M⁻¹ s⁻¹ | – | –
B6 | 0.0584 s⁻¹ | 98300 M⁻¹ s⁻¹ | 0.00163 s⁻¹ | 20900 M⁻¹ s⁻¹ | – | –
B7 | 0.0636 s⁻¹ | 62300 M⁻¹ s⁻¹ | 0.00047 s⁻¹ | 12900 M⁻¹ s⁻¹ | 1.02 µM | –
B8 | 0.0481 s⁻¹ | 61000 M⁻¹ s⁻¹ | 0.000468 s⁻¹ | 14300 M⁻¹ s⁻¹ | – | –
B9 | 0.00116 s⁻¹ | 55000 M⁻¹ s⁻¹ | 0.000722 s⁻¹ | 12200 M⁻¹ s⁻¹ | – | –
B10 | 0.00253 s⁻¹ | 50000 M⁻¹ s⁻¹ | 0.000801 s⁻¹ | 13000 M⁻¹ s⁻¹ | – | –
B11 | – | – | 0.00105 s⁻¹ | 12100 M⁻¹ s⁻¹ | – | –
B12 | 0.0251 s⁻¹ | 94600 M⁻¹ s⁻¹ | 0.000606 s⁻¹ | 12300 M⁻¹ s⁻¹ | – | –
B13 | 0.012 s⁻¹ | 35400 M⁻¹ s⁻¹ | 0.0196 s⁻¹ | 3470 M⁻¹ s⁻¹ | – | 5.66 µM
B14 | 0.00316 s⁻¹ | 72000 M⁻¹ s⁻¹ | 0.00579 s⁻¹ | 10900 M⁻¹ s⁻¹ | – | –
B15 | – | – | 0.00136 s⁻¹ | 12200 M⁻¹ s⁻¹ | – | –
B16 | – | – | 0.000647 s⁻¹ | 9980 M⁻¹ s⁻¹ | – | –
